Measured values published in patent US8715970B2, “Enzymatically catalyzed method of preparing mono-acylated polyols” (BASF SE, priority 2009, dated 2014).
Substitutions are numbered along the chain they refer to. Names may count otherwise.

What was measured:
Type in all cases: biochemical
[1] = Enzyme-catalyzed acylation of 1,4-butanediol with vinyl butyrate as acyl donor (Example 3); details: 1,4-butanediol 10 mM, 200 mM vinyl butyrate in MTBE, 29° C.
Method: (§1) Each diol was dissolved to a concentration of 10 mM together with 2 mM of decane ≧98% from Fluka and 200 mM vinyl butyrate >99% from Fluka in MTBE 99.5% from Lab-Scan, which was used as acyl donor and solvent. Reactions were started by adding 4 ml reaction solution to 20 mg enzyme carrier beads loaded with either wild-type or T40A mutated CALB. Reactions were run at 29° C. on a HLC rotating thermo block. Aliquots of 50 μl were taken, filtered through wool in a Pasteur pipette and diluted with 50 μl ethyl acetate prior to analysis. The decane used as internal standard were present in the reaction solution throughout both reaction and analysis.
(§2) All reactions were analyzed on GC, Hewlett Packard 5890 series II. A 25 m×0.32 mm WCOT fused silica non-polar GC-column with CP-SIL 5CB coating was used for the reactions.
(§3) The response factor for each diol was determined in relationship to decane. When all diol and mono-ester had converted to di-ester, the response factor for the di-ester could be determined in relationship to decane. The concentration of mono-ester in each reaction was determined by subtracting the concentration of di-ester from the starting concentration of diol.

[2] = Acylation of 1,4-butanediol in competition with 1-butanol (Example 4)
Method: (§4) Additionally, 1-butanol, ≧99.5% from Riedel-de Haën, was used as a competing substrate.
(§5) 25 mM decane ≧98% from Fluka, was used as internal standard.
(§6) Two different acyl donors were used:
(§7) Ethyl acetate, ≧99% from Fluka, used as both solvent and acyl donor
(§8) 1 M Vinyl butyrate, >99% from Fluka, together with in MTBE, 99.5% from Lab-Scan, used as solvent.
(§9) Each diol was dissolved to a concentration of 100 mM together with 25 mM of decane in ethyl acetate, ≧99% from Fluka, used as acyl donor and solvent. Reactions were started by adding 3 ml reaction solution to 10 mg enzyme carrier beads loaded with wild-type CALB or 20 mg carrier beads loaded with T40A mutated CALB. Reactions were run at 29° C. in a temperature bath consisting of a HETO thermostat coupled to a Bom-roerder combined temperature bath and magnetic stirrer. 25 mM decane was used as internal standard were present in the reaction solution throughout both reaction and analysis. Aliquots of 60 μl were taken, filtered through wool in a Pasteur pipette together with 540 μl ethyl acetate prior to analysis. The filtration through wool removed any remaining enzyme from the reaction solution, and the reaction samples were diluted by a factor of 10 prior to analysis.
(§10) All reactions were analyzed on GC, Hewlett Packard 5890 series II. Two different 25 m×0.32 mm WCOT fused silica columns were used, depending on the different substrates and products that were analyzed. A polar GC-column with CP Chirasil-Dex CB coating was used for the reactions with 1,2-ethanediol. A non-polar GC-column with CP-SIL 5CB coating was used for the reactions with 1,4-butanediol.
as §3

[3] = Acylation of 1,2-ethanediol in competition with 1-butanol (Example 4)
Method: as §4, §5, §6, §7, §8, §9, §10, §3

[4] = Enzyme-catalyzed acylation of 2-methyl-1,3-propanediol with vinyl butyrate as acyl donor (Example 3); details: 2-methyl-1,3-propanediol 10 mM, 200 mM vinyl butyrate in MTBE, 29° C.
Method: as §1, §2, §3

[5] = Enzyme-catalyzed acylation of 1,3-propanediol with ethyl acetate as acyl donor (Example 2); details: for Conversion at 3:1 (monoester:diester) / Conversion at 9:1 (monoester:diester) / Maximum monoester yield: 1,3-propanediol 20 mM in ethyl acetate; for Maximum monoester yield: 29° C.
Method: as §1, with “of 20” for “of 10”, “with 5” for “with 2”, “of 3-hexanone in ethyl acetate, ≧99%” for “of decane ≧98%”, “from Fluka,” for “from Fluka and 200 mM vinyl butyrate >99% from Fluka in MTBE 99.5% from Lab-Scan,”, “The 3-hexanon” for “The decane”
(§11) 5 mM 3-hexanone was used as internal standard in the reaction mixtures together with 20 mM diol. Aliquots were taken during the reaction by taking 50 μl of reaction sample. The samples were filtered though wool together with 50 μl ethyl acetate, thereby any remaining enzyme were removed and the reaction samples were diluted by a factor of 2 prior to analysis.
(§12) The reactions catalyzed by the T40A-mutant were rerun with 100 mg enzyme carrier beads for determination of maximum monoester yield. The reactions with 2-methyl-1,3-propanediol and 2-phenyl-1,3-propanediol were rerun at 100 mM concentration of diol and 50 mg enzyme carrier beads, both with CALB wild type and CALB T40A-mutant. This was done in order to determine the enantiomeric excess.
(§13) All reactions were analyzed on GC, Hewlett Packard 5890 series II. Two different 25 m×0.32 mm WCOT fused silica columns were used, depending on the different substrates and products that were analyzed. A polar GC-column with CP Chirasil-Dex CB coating was used for the reactions with 1,2-ethanediol and 1,3-propanediol. A non-polar GC-column with CP-SIL 5CB coating was used for the reactions with 1,4-butanediol, 2-methyl-1,3-propanediol and 2-phenyl-1,3-propanediol.
(§14) The response factor for each diol was determined in relationship to 3-hexanone. When all diol and mono-ester had converted to di-ester, the response factor for the di-ester could be determined in relationship to […]. The concentration of mono-ester in each reaction was determined by subtracting the concentration of di-ester from the starting concentration of diol.
(§15) A great difference in concentration between acyl donor and diol was accomplished in the reactions by using ethyl acetate as solvent and acyldonor and a diol concentration of 20 mM. Therefore the reactions was considered to irreversible, following the reaction scheme:
(§16) [formula] A, B and C corresponds to diol, monoester and diester, respectively. k1 and k2 respectively corresponds to the reaction rates of the acylation of diol and monoester.
(§17) The reaction rates are dependent on enzyme concentrations and the kcat/KM towards the substrates. By fitting the concentrations measured over time into the equations and using the enzyme concentration determined by active site titration, the following results were obtained.

[6] = Enzyme-catalyzed acylation of 2-methyl-1,3-propanediol with ethyl acetate as acyl donor (Example 2); details: for Conversion at 3:1 (monoester:diester) / Maximum monoester yield: 2-Me-1,3-propanediol 20 mM in ethyl acetate; for Maximum monoester yield: 29° C.
Method: as §1, with “of 20” for “of 10”, “with 5” for “with 2”, “of 3-hexanone in ethyl acetate, ≧99%” for “of decane ≧98%”, “from Fluka,” for “from Fluka and 200 mM vinyl butyrate >99% from Fluka in MTBE 99.5% from Lab-Scan,”, “The 3-hexanon” for “The decane”
as §11, §12, §13, §14, §15, §16, §17

[7] = Enzyme-catalyzed acylation of 1,4-butanediol with ethyl acetate as acyl donor (Example 2); details: for Conversion at 3:1 (monoester:diester) / Conversion at 9:1 (monoester:diester) / Maximum monoester yield: 1,4-butanediol 20 mM in ethyl acetate; for Maximum monoester yield: 29° C.
Method: as §1, with “of 20” for “of 10”, “with 5” for “with 2”, “of 3-hexanone in ethyl acetate, ≧99%” for “of decane ≧98%”, “from Fluka,” for “from Fluka and 200 mM vinyl butyrate >99% from Fluka in MTBE 99.5% from Lab-Scan,”, “The 3-hexanon” for “The decane”
as §11, §12, §13, §14, §15, §16, §17

[8] = 2-methyl-1,3-propanediol, ethyl acetate

B1: WT: non-mutated Candida antarctica lipase B (CALB), SEQ ID NO: 2, immobilized on carrier beads (protein, listed as Candida antarctica)
chain: LPSGSDPAFSQPKSVLDAGLTCQGASPSSVSKPILLVPGTGTTGPQSFDSNWIPLSAQLGYTPCWISPPPFMLNDTQVNTEYMVNAITTLYAGSGNNKLPVLTWSQGGLVAQWGLTFFPSIRSKVDRLMAFAPDYKGTVLAGPLDALAVSAPSVWQQTTGSALTTALRNAGGLTQIVPTTNLYSATDEIVQPQVSNSPLDSSYLFNGKNVQAQAVCGPLFVIDHAGSLTSQFSYVVGRSALRSTTGQARSADYGITDCNPLPANDLTPEQKVAAAALLAPAAAAIVAGPKQNCEPDLMPYARPFAVGKRTCSGIVTP
modifications: immobilized on carrier beads
Maximum monoester yields [1]: 25% | Initial reaction rates ([2]; ethyl acetate): 0.065 mol/g/min | Initial reaction rates ([2]; vinyl butyrate): 0.16 mol/g/min | Initial reaction rates ([3]; ethyl acetate): 0.081 mol/g/min | Initial reaction rates ([3]; vinyl butyrate): 0.41 mol/g/min | Maximum monoester yields [4]: 34% | Conversion at 3:1 (monoester:diester) [5]: 19% | Conversion at 9:1 (monoester:diester) [5]: 10% | Maximum monoester yield [5]: 33% | Selectivity diol/monoester ([5]; 1,3-propanediol, ethyl acetate, listed as wild type): 0.94 | Selectivity diol/monoester ([5]; 1,3-propanediol, ethyl acetate, listed as wild type CALB): 0.9 | Conversion at 3:1 (monoester:diester) [6]: 30% | Maximum monoester yield [6]: 42% | Selectivity diol/monoester [6, 8]: 1.5 | Conversion at 3:1 (monoester:diester) [7]: <5% | Conversion at 9:1 (monoester:diester) [7]: <5% | Maximum monoester yield [7]: 25% | Selectivity diol/monoester ([7]; 1,4-butanediol, ethyl acetate, listed as wild type): 0.63 | Selectivity diol/monoester ([7]; 1,4-butanediol, ethyl acetate, listed as wild type CALB): 0.6

B2: T40A: CALB mutant with single mutation Thr40Ala (SEQ ID NO: 4) (protein)
chain: B1 chain with T40X
modifications: T40 Mutant
Maximum monoester yields [1]: 44% | Initial reaction rates ([2]; ethyl acetate): 0.0008 mol/g/min | Rate ratio, T40A/WT ([2]; ethyl acetate): 1.2% | Selectivity towards diol over 1-butanol, compared with wild type CALB ([2]; ethyl acetate as acyl donor and solvent (FIG. 9B)): higher | Initial reaction rates ([2]; vinyl butyrate): 0.016 mol/g/min | Rate ratio, T40A/WT ([2]; vinyl butyrate): 9.6% | Selectivity towards diol over 1-butanol, compared with wild type CALB ([2]; vinyl butyrate, MTBE (FIG. 10B)): higher | Initial reaction rates ([3]; ethyl acetate): 0.002 mol/g/min | Rate ratio, T40A/WT ([3]; ethyl acetate): 2.5% | Selectivity towards diol over 1-butanol, compared with wild type CALB ([3]; ethyl acetate as acyl donor and solvent (FIG. 9A)): higher | Initial reaction rates ([3]; vinyl butyrate): 0.065 mol/g/min | Rate ratio, T40A/WT ([3]; vinyl butyrate): 16% | Selectivity towards diol over 1-butanol, compared with wild type CALB ([3]; vinyl butyrate, MTBE (FIG. 10A)): higher | Maximum monoester yields [4]: 56% | Conversion at 3:1 (monoester:diester) [5]: 22% | Conversion at 9:1 (monoester:diester) [5]: 19% | Maximum monoester yield [5]: 50% | Selectivity diol/monoester ([5]; 1,3-propanediol, ethyl acetate): 2.4 | Selectivity ratio diol/monoester T40A/WT ([5]; 1,3-propanediol, ethyl acetate): 2.6 | Conversion at 3:1 (monoester:diester) [6]: 55% | Maximum monoester yield [6]: 55% | Selectivity diol/monoester [6, 8]: 2.6 | Selectivity ratio diol/monoester T40A/WT [6, 8]: 1.7 | Selectivity diol/monoester ([6]; 2-methyl-1,3-propanediol, ethyl acetate, listed as T40A CALB): 2.5 | Conversion at 3:1 (monoester:diester) [7]: 64% | Conversion at 9:1 (monoester:diester) [7]: 26% | Maximum monoester yield [7]: 49% | Selectivity diol/monoester ([7]; 1,4-butanediol, ethyl acetate): 1.8 | Selectivity ratio diol/monoester T40A/WT ([7]; 1,4-butanediol, ethyl acetate): 2.9 | Selectivity diol/monoester ([7]; 1,4-butanediol, ethyl acetate, listed as T40A CALB): 1.9
